Results on 3 substances are retold here after patent US5858973.

The target of this data set is IDX-1 (IDX-1/pBJ5 expressed in NIH-3T3) (Rattus norvegicus) (UniProt P52947). As to the kind of experiment: cell_activity.
IDX-1 (IDX-1/pBJ5 expressed in NIH-3T3) (Rattus norvegicus), sequence (P52947 other isoform, or with tags, fused parts or gaps): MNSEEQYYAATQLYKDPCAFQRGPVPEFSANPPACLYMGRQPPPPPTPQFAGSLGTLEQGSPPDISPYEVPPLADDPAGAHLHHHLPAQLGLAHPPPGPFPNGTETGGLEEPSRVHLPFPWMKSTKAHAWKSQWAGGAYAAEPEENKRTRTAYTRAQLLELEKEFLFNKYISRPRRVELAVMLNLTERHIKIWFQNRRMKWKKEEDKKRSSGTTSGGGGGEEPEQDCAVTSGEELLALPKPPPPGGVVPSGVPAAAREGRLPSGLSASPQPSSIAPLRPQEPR

For SMS(-900/-250)TKCAT, the activity (parent TKCAT not activated) was 4 fold. In turn, SMS900CAT promoter (-900 to +54) came in with an activity (CAT reporter in NIH-3T3) of 4 fold. On the same count and under the same terms, next, SMS900(delta-250/-120)CAT promoter: 5 fold.
